Experimental data from the supplement of paper PMC10899765.

Assays:
Settings in all cases: 20 nM; 72 h
MCF10A [1] = assay: 5+ nucleoli phenotype percent effect (relative to siNT 0% and siKIF11 100%); higher = more cells with five or more nucleoli
Method: (§1)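 After 72 h, cells were fixed and stained with Hoechst and anti-fibrillarin, and nucleoli per nucleus were counted with CellProfiler. Values are plate-adjusted percent effect for the one-nucleolus and 5+ nucleoli phenotypes, normalised to siNT (0%) and to the positive controls siNOL11 or siKIF11 (100%), as the mean of biological triplicates. Percent viability is the nuclei count relative to siNT.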

MCF10A [2] = assay: one-nucleolus phenotype percent effect (relative to siNT 0% and siNOL11 100%); higher = more cells with one nucleolus (ribosome biogenesis inhibition)
Method: as §1

MCF10A [3] = assay: percent viability (nuclei count relative to siNT); higher = more viable cells
Method: as §1

Row | Sequence | 5+ nucleoli phenotype percent effect (MCF10A [1]) [%] | one-nucleolus phenotype percent effect (MCF10A [2]) [%] | percent viability (MCF10A [3]) [%]
1 | UUCAGCCAGGCUAGUGCAGUCU [hsa-miR-3157-5p] | -4.24 | 7.66 | 20.1
2 | UUCAUGAACUGGGUCUAGCUUGG [hsa-miR-7154-5p] | -0.807 | -15.2 | 60.8
3 | UUCAUUCGGCUGUCCAGAUGUA [hsa-miR-1298] | 33.4 | -24.3 | 130
4 | UUCAUUUGCCUCCCAGCCUACA [hsa-miR-664b-3p] | -29.2 | 39.1 | 28.7
5 | UUCAUUUGGUAUAAACCGCGAUU [hsa-miR-579] | -37.2 | 45.1 | 29
6 | UUCCACUGCCACUACCUAAUUU [hsa-miR-6509-3p] | -18.4 | -4.11 | 56.2
7 | UUCCAGCCCUGGUAGGCGCCGCG [hsa-miR-6720-5p] | -23.2 | 45 | 17.9
8 | UUCCAGCCCUUCUAAUGGUAGG [hsa-miR-6512-3p] | -33.4 | 39.8 | 33.8
9 | UUCCAUGCCUCCUAGAAGUUCC [hsa-miR-5581-3p] | 13.6 | -19.3 | 57.3
10 | UUCCCAGCCAACGCACCA [hsa-miR-7977] | 20.4 | -23.2 | 63.8
11 | UUCCCUAUCUCACUCUCCUCAG [hsa-miR-6883-3p] | 20.1 | -14.4 | 58.5
12 | UUCCCUUUGUCAUCCUAUGCCU [hsa-miR-204-5p] | 46 | -10.4 | 100
13 | UUCCCUUUGUCAUCCUUCGCCU [hsa-miR-211-5p] | 49.7 | -7.23 | 75.8
14 | UUCCGCCAGUCGGUGGCCGG [hsa-miR-6084] | 0.691 | -5.3 | 90.2
15 | UUCCUAUGCAUAUACUUCUUUG [hsa-miR-202-5p] | 12.8 | -12.4 | 72.7
16 | UUCCUGGGCUUCUCCUCUGUAG [hsa-miR-6783-3p] | 7.93 | -1.45 | 88.9
17 | UUCCUUCUGUUGUCUGUGCAG [hsa-miR-6868-3p] | -19.2 | -3.76 | 28.1
18 | UUCGCCACUUCCCUCCCUGCAG [hsa-miR-6788-3p] | 18 | -13.9 | 89.7
19 | UUCGCGGGCGAAGGCAAAGUC [hsa-miR-3124-5p] | 18.7 | 3.56 | 32.5
20 | UUCGGGCUGGCCUGCUGCUCCGG [hsa-miR-3944-3p] | 17.5 | -7.09 | 30.8
21 | UUCGGUAUACUUUGUGAAUUGG [hsa-miR-4798-5p] | -0.701 | 0.862 | 78.1
22 | UUCUAGAUGAGAGAUAUAUAUA [hsa-miR-4777-5p] | -25.9 | 29.8 | 34.7
23 | UUCUCAAGAGGGAGGCAAUCAU [hsa-miR-514b-5p] | 36.5 | -22.9 | 43.1
24 | UUCUCAAGGAGGUGUCGUUUAU [hsa-miR-513c-5p] | 3.99 | 19.8 | 30
25 | UUCUCCAAAAGAAAGCACUUUCUG [hsa-miR-515-5p] | 3.02 | -9.79 | 91.4
26 | UUCUCCAAAAGGGAGCACUUUC [hsa-miR-519e-5p] | 4.42 | -3.64 | 39.5
27 | UUCUCGAGGAAAGAAGCACUUUC [hsa-miR-516a-5p] | 22.1 | -19.5 | 127
28 | UUCUCUCUGUCUUUCUCUCUCAG [hsa-miR-6873-3p] | 46.6 | -19 | 35.2
29 | UUCUCUUUCUUUAGCCUUGUGU [hsa-miR-4753-3p] | -14.1 | 27.3 | 22.1
30 | UUCUGAGCUGAGGACAG [hsa-miR-4303] | -10.7 | -2.54 | 45.5
